This is an account of results in patent US20060029603A1 (GlaxoSmithKline, published 2006).

B1: H6L14 (antibody, human IgG1, kappa)
heavy: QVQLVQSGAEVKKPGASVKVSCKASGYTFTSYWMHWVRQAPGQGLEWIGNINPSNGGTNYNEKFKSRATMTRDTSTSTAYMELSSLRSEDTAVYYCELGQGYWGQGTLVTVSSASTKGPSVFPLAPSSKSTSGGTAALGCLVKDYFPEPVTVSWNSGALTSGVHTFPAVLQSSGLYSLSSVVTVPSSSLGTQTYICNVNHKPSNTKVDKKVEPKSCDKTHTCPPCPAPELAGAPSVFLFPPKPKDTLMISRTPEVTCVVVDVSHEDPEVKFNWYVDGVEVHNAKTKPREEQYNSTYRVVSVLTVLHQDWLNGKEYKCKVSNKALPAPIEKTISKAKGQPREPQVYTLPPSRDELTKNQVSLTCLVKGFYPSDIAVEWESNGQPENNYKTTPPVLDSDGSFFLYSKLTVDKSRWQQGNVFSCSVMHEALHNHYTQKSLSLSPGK
light: DIVMTQSPLSLPVTLGQPASISCRSSKSLLYKDGKTYLNWFLQRPGQSPQLLIYLMSTRASGVPDRFSGGGSGTDFTLKISRVEAEDVGVYYCQQLVEYPLTFGQGTKLEIKRTVAAPSVFIFPPSDEQLKSGTASVVCLLNNFYPREAKVQWKVDNALQSGNSQESVTEQDSKDSTYSLSSTLTLSKADYEKHKVYACEVTHQGLSSPVTKSFNRGEC
notes: Tested as CHO-K1 supernatant
B2: H14L13 (antibody, human IgG1, kappa, V domains shown)
VH: QVQLVQSGAEVVKPGASVKLSCKASGYTFTSYWMHWVKQAPGQGLEWIGNINPSNGGTNYNEKFKSRATLTRDTSTSTAYMELSSLRSEDTAVYYCELGQGYWGQGTLVTVSS
VL: DIVMTQSPLSLPVTLGQPASISCRSSKSLLYKDGKTYLNWFQQRPGQSPQLLIYLMSTRASGVPDRFSGGGSGTDFTLKISRVEAEDVGVYYCQQLVEYPLTFGQGTKLEIKR
notes: Tested as CHO-K1 supernatant
B3: H18L13 (antibody, human IgG1, kappa, V domains shown)
VH: QVQLVQSGAEVVKPGASVKLSCKASGYTFTSYWMHWVKQRPGQGLEWIGNINPSNGGTNYNEKFKSKATLTVDKSSSTAYMELSSLRSEDSAVYYCELGQGYWGQGTLVTVSS
VL: DIVMTQSPLSLPVTLGQPASISCRSSKSLLYKDGKTYLNWFQQRPGQSPQLLIYLMSTRASGVPDRFSGGGSGTDFTLKISRVEAEDVGVYYCQQLVEYPLTFGQGTKLEIKR
notes: Tested as CHO-K1 supernatant
B4: H15L16 (antibody, human IgG1, kappa, V domains shown)
VH: QVQLVQSGAEVVKPGASVKLSCKASGYTFTSYWMHWVKQRPGQGLEWIGNINPSNGGTNYNEKFKSKATLTVDTSSSTAYMELSSLRSEDSAVYYCELGQGYWGQGTLVTVSS
VL: DIVMTQSPLSNPVTLGQPVSISCRSSKSLLYKDGKTYLNWFLQRPGQSPQLLIYLMSTRASGVPDRFSGGGSGTDFTLKISRVEAEDVGVYYCQQLVEYPLTFGQGTKLEIKR
notes: Tested as CHO-K1 supernatant
B5: H14L18 (antibody, human IgG1, kappa, V domains shown)
VH: QVQLVQSGAEVVKPGASVKLSCKASGYTFTSYWMHWVKQAPGQGLEWIGNINPSNGGTNYNEKFKSRATLTRDTSTSTAYMELSSLRSEDTAVYYCELGQGYWGQGTLVTVSS
VL: DIVMTQDPLSNPVTLGQPVSISCRSSKSLLYKDGKTYLNWFLQRPGQSPQLLIYLMSTRASGVSDRFSGSGSGTDFTLKISRVEAEDVGVYYCQQLVEYPLTFGQGTKLEIKR
B6: H6L17 (antibody, human IgG1, kappa, V domains shown)
VH: QVQLVQSGAEVKKPGASVKVSCKASGYTFTSYWMHWVRQAPGQGLEWIGNINPSNGGTNYNEKFKSRATMTRDTSTSTAYMELSSLRSEDTAVYYCELGQGYWGQGTLVTVSS
VL: DIVMTQDPLSLPVTLGQPASISCRSSKSLLYKDGKTYLNWFQQRPGQSPQLLIYLMSTRASGVSDRFSGSGSGTDFTLKISRVEAEDVGVYYCQQLVEYPLTFGQGTKLEIKR
notes: Tested as CHO-K1 supernatant
B7: H6L16 (antibody, human IgG1, kappa)
heavy: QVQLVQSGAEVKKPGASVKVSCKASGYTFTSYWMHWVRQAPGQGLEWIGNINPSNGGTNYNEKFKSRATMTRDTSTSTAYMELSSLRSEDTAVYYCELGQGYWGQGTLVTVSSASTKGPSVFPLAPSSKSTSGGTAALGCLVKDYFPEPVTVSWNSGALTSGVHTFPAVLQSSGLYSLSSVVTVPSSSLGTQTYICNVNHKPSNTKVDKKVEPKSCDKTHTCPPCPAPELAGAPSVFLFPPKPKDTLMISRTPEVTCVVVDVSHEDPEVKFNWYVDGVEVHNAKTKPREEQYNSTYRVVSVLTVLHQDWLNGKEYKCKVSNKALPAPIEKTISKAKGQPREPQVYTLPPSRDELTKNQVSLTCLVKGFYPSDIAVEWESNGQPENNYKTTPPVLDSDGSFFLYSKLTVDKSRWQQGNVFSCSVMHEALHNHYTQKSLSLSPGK
light: DIVMTQSPLSNPVTLGQPVSISCRSSKSLLYKDGKTYLNWFLQRPGQSPQLLIYLMSTRASGVPDRFSGGGSGTDFTLKISRVEAEDVGVYYCQQLVEYPLTFGQGTKLEIKRTVAAPSVFIFPPSDEQLKSGTASVVCLLNNFYPREAKVQWKVDNALQSGNSQESVTEQDSKDSTYSLSSTLTLSKADYEKHKVYACEVTHQGLSSPVTKSFNRGEC
notes: Tested as CHO-K1 supernatant
B8: H6L15 (antibody, human IgG1, kappa, V domains shown)
VH: QVQLVQSGAEVKKPGASVKVSCKASGYTFTSYWMHWVRQAPGQGLEWIGNINPSNGGTNYNEKFKSRATMTRDTSTSTAYMELSSLRSEDTAVYYCELGQGYWGQGTLVTVSS
VL: DIVMTQSPLSLPVTLGQPASISCRSSKSLLYKDGKTYLNWFLQRPGQSPQLLIYLMSTRASGVSDRFSGGGSGTDFTLKISRVEAEDVGVYYCQQLVEYPLTFGQGTKLEIKR
notes: Tested as CHO-K1 supernatant
B9: H6L6 (antibody, human IgG1, kappa, V domains shown)
VH: QVQLVQSGAEVKKPGASVKVSCKASGYTFTSYWMHWVRQAPGQGLEWIGNINPSNGGTNYNEKFKSRATMTRDTSTSTAYMELSSLRSEDTAVYYCELGQGYWGQGTLVTVSS
VL: DIVMTQSPLSLPVTPGEPASISCRSSKSLLYKDGKTYLNWFLQRPGQSPQLLIYLMSTRASGVPDRFSGSGSGTDFTLKISRVEAEDVGVYYCQQLVEYPLTFGGGTKVEIKR
B10: H10L13 (antibody, V domains shown)
VH: QVQLVQSGAEVKKPGASVKLSCKASGYTFTSYWMHWVKQAPGQGLEWIGNINPSNGGTNYNEKFKSRATLTVDKSTSTAYMELSSLRSEDTAVYYCELGQGYWGQGTLVTVSS
VL: DIVMTQSPLSLPVTLGQPASISCRSSKSLLYKDGKTYLNWFQQRPGQSPQLLIYLMSTRASGVPDRFSGGGSGTDFTLKISRVEAEDVGVYYCQQLVEYPLTFGQGTKLEIK
B11: H5L6 (antibody, human IgG1, kappa, V domains shown)
VH: QVQLVQSGAEVKKPGASVKVSCKASGYTFTSYWMHWVRQAPGQGLEWMGNINPSNGGTNYNEKFKSRVTMTRDTSTSTAYMELSSLRSEDTAVYYCELGQGYWGQGTLVTVSS
VL: DIVMTQSPLSLPVTPGEPASISCRSSKSLLYKDGKTYLNWFLQRPGQSPQLLIYLMSTRASGVPDRFSGSGSGTDFTLKISRVEAEDVGVYYCQQLVEYPLTFGGGTKVEIKR
B12: HcL11 (antibody, human IgG1, kappa)
heavy: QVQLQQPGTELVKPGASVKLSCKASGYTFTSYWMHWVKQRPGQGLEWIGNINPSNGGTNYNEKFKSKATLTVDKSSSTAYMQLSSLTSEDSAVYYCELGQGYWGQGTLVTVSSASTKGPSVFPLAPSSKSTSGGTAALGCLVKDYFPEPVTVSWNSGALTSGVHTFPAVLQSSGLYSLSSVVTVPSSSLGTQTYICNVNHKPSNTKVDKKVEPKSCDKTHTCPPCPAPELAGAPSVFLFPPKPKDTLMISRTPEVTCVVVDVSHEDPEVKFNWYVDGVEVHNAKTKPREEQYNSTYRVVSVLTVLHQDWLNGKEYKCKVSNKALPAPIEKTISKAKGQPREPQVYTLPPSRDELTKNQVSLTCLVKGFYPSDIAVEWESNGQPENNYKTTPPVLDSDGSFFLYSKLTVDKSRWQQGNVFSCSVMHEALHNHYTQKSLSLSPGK
light: DIVITQSPLSLPVTLGQPASISCRSSKSLLYKDGKTYLNWFQQRPGQSPQLLIYLMSTRASGVPDRFSGGGSGTDFTLKISRVEAEDVGVYYCQQLVEYPLTFGQGTKLEIKRTVAAPSVFIFPPSDEQLKSGTASVVCLLNNFYPREAKVQWKVDNALQSGNSQESVTEQDSKDSTYSLSSTLTLSKADYEKHKVYACEVTHQGLSSPVTKSFNRGEC
notes: Chimeric heavy chain Hc paired with humanised light chain L11; The pairing is read from the name
B13: H700L11 (antibody, human IgG1, kappa, V domains shown)
VH: QVQLVQSGAEVKKPGASVKVSCKASGYTFTSYWMHWVRQAPGQGLEWIGNINPSNGGTNYNEKFKSRATLTVDKSTSTAYMELSSLRSEDTAVYYCELGQGYWGQGTLVTVSS
VL: DIVITQSPLSLPVTLGQPASISCRSSKSLLYKDGKTYLNWFQQRPGQSPQLLIYLMSTRASGVPDRFSGGGSGTDFTLKISRVEAEDVGVYYCQQLVEYPLTFGQGTKLEIKR
B14: HcL13 (antibody, human IgG1, kappa)
heavy: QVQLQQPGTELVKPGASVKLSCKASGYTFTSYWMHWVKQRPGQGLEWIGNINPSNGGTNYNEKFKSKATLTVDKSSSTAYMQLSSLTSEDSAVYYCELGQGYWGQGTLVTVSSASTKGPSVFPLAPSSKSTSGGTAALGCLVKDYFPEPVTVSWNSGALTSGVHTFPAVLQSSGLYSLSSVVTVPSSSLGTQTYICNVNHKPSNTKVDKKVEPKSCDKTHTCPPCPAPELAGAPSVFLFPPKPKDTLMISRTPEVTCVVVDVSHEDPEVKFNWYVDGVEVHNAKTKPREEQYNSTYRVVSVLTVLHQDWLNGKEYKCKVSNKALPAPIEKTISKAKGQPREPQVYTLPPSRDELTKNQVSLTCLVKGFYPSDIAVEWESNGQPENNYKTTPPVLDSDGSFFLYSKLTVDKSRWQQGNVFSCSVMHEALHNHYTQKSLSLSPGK
light: DIVMTQSPLSLPVTLGQPASISCRSSKSLLYKDGKTYLNWFQQRPGQSPQLLIYLMSTRASGVPDRFSGGGSGTDFTLKISRVEAEDVGVYYCQQLVEYPLTFGQGTKLEIKRTVAAPSVFIFPPSDEQLKSGTASVVCLLNNFYPREAKVQWKVDNALQSGNSQESVTEQDSKDSTYSLSSTLTLSKADYEKHKVYACEVTHQGLSSPVTKSFNRGEC
notes: Chimeric heavy chain Hc paired with humanised light chain L13; The pairing is read from the name
B15: H17L16 (antibody, human IgG1, kappa)
heavy: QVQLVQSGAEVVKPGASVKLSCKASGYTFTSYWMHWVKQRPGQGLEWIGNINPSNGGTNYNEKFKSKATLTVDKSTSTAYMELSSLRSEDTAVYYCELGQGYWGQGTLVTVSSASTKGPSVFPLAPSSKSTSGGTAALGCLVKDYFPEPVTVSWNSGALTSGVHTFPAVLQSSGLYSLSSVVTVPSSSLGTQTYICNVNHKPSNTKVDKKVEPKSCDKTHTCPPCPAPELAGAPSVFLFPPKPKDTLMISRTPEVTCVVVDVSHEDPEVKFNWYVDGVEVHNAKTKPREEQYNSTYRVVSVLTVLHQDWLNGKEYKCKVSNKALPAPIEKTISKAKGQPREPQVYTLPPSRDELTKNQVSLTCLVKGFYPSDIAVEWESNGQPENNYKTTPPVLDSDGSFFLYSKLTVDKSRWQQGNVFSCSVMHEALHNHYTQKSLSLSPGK
light: DIVMTQSPLSNPVTLGQPVSISCRSSKSLLYKDGKTYLNWFLQRPGQSPQLLIYLMSTRASGVPDRFSGGGSGTDFTLKISRVEAEDVGVYYCQQLVEYPLTFGQGTKLEIKRTVAAPSVFIFPPSDEQLKSGTASVVCLLNNFYPREAKVQWKVDNALQSGNSQESVTEQDSKDSTYSLSSTLTLSKADYEKHKVYACEVTHQGLSSPVTKSFNRGEC
notes: Humanised 2A10

In one assay the target is T1, GST-human NOGO-A56 (human, UniProt P08515 1-218 = GST).
T1 construct: GST-tagged fusion expressed in E. coli BL21 and purified on glutathione-sepharose; coated on ELISA plates or amine-coupled to a CM5 chip; also called hNOGO; recombinant human NOGO
T1 sequence (P08515 1-218, tags or fused parts left off): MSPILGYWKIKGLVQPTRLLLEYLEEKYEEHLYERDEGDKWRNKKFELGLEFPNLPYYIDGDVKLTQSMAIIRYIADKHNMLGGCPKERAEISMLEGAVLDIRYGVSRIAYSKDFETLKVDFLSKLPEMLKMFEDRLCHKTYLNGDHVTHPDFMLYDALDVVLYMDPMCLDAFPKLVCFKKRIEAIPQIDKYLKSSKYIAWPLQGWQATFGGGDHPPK
Kind of assay: SPR (Biacore) off-rate ranking, CHO-K1 transient supernatant over GST-human NOGO-A56 chip; single experiment. How it is done: (§1) hNOGO (GST-human NOGO-A56) was immobilised to a CM5 chip by primary amine coupling using the Biacore Wizard program designed for targeted immobilisation levels. The CM5 sensor surface was activated by passing a solution of 50 mM N-hydroxy-succinimide (NHS) and 200 mM N-ethyl-N′-dimethylaminopropyl […] (EDC). Then hNOGO in sodium acetate buffer, pH5.0 or pH 4.5, was passed over the chip and immobilised. After immobilisation was complete any still activated esters were blocked by an injection of 1M ethanolamine hydrochloride, pH8.5.
The hNOGO chip was prepared as for kinetic analysis. Cell supernatants where taken directly from transient transfections of CHO-K1 cells. These were passed directly over the sensor surface and the interaction measured. A mock transfected cell supernatant was used for double referencing to remove any artefacts due to the tissue culture media. All runs were referenced against a blanked sensor surface (one that had been activated and blocked as described earlier but had no addition of ligand). Analysis of binding was carried out using the BIAevaluation kinetic analysis software version 4.1.
In general terms: In SPR one partner is held on a chip, and binding of the other changes the refractive index at the surface.
With B1, the koff (commonly a measure of how fast the partners let go of each other) came to 0.0457 s⁻¹.
B2: the koff was 0.0138 s⁻¹.
The same measure, in the same setting: in the case of B3 it was 0.00907 s⁻¹.
On the same count and under the same terms, the same measure for B4: 0.00604 s⁻¹.
The same measure, in the same setting: the same measure for B5: 0.00835 s⁻¹; for B6: 0.0158 s⁻¹; for B7: 0.0114 s⁻¹.
In turn, B8 had a dissociation rate constant (koff) of 0.0211 s⁻¹.

The target of a further assay is T1, GST-human NOGO-A56. Kind of assay: SPR (Biacore 3000), GST-human NOGO-A56 on CM5, antibody as analyte; single experiment. Here is the method: as §1
(§2) The anti-NOGO mAbs were diluted down in HBS-EP (10 mM HEPES, pH 7.4, 150 mM NaCl, 3 mM EDTA, and 0.005% P-20 surfactant) and binding studies were carried out at range of defined antibody concentrations. All runs were referenced against a blanked sensor surface (one that had been activated and blocked as described earlier but had no addition of ligand). Analysis of binding was carried out using the BIAevaluation kinetic analysis software version 4.1. Biacore analysis of other antibodies of the invention essentially followed the same protocol as described herein.
Turning to B9, the equilibrium dissociation constant (Kd) (commonly a measure of binding affinity in units of concentration) stood at 21.4 nM, the koff was 0.0254 s⁻¹ and the association rate constant (kon) (usually the rate constant with which the complex forms) worked out at 1.2e+06 M⁻¹ s⁻¹.
In the same order, the values of B10 are 12.9 nM, 0.0212 s⁻¹ and 1.64e+06 M⁻¹ s⁻¹.
For the molecule B11, the Kd stood at 30.3 nM, the koff stood at 0.047 s⁻¹ and the on-rate (kon) was 1.5e+06 M⁻¹ s⁻¹.
In the same order, the values of B12 are 3.55 nM, 0.0134 s⁻¹ and 3.78e+06 M⁻¹ s⁻¹.
In the same order, the values of B13 are 19.4 nM, 0.0233 s⁻¹ and 1.19e+06 M⁻¹ s⁻¹.
On the same counts, the results for B14 are 1.98 nM, 0.00938 s⁻¹ and 4.8e+06 M⁻¹ s⁻¹.

The next assay deals with T1, GST-human NOGO-A56. The description is as above. The source holds these as a separate data set. How it is done: (§3) The binding kinetics of the anti-NOGO monoclonal antibody (mAb) to recombinantly expressed human NOGO-A (GST-human NOGO-A56) was analysed using the Biacore3000 biosensor. The hNOGO-A chip was prepared as follows:
as §1, §2
As to B5, binding was characterised by a dissociation constant (Kd) of 3.6 nM, the off-rate constant (koff) is 0.00869 s⁻¹ and the kon was 2.41e+06 M⁻¹ s⁻¹.

The next assay has as its target T1, GST-human NOGO-A56. Kind of assay: SPR (Biacore 3000), GST-human NOGO-A56 amine-coupled to CM5, antibody as analyte; mean (SD) of four experiments. Here is the method: as §3, §1, §2
Turning to B15, the affinity, expressed as Kd, was 1.82 nM; the off-rate constant (koff) was 0.0061 s⁻¹; the kon amounted to 3.38e+06 M⁻¹ s⁻¹.
